Measured values as given in patent publication US20230348881.

B1: human MMP7 (protein)
chain: YSLFPNSPKWTSKVVTYRIVSYTRDLPHITVDRLVSKALNMWGKEIPLHFRKVVWGTADIMIGFARGAHGDSYPFDGPGNTLAHAFAPGTGLGGDAHFDEDERWTDGSSLGINFLYAATHELGHSLGMGHSSDPNAVMYPTYGNGDPQNFKLSQDDIKGIQKLYGKRSNSRKK
B2: human MMP12 (matrix metalloproteinase-12) (protein)
chain: GPVWRKHYITYRINNYTPDMNREDVDYAIRKAFQVWSNVTPLKFSKINTGMADILVVFARGAHGDFHAFDGKGGILAHAFGPGSGIGGDAHFDEDEFWTTHSGGTNLFLTAVHEIGHSLGLGHSSDPKAVMFPTYKYVDINTFRLSADDIRGIQSLYG

Assays:
[1] = target: exemplary modified PPE proproteins
[2] = target: Mutant 3, modified PPE proprotein with the MMP12 cleavage site, balanced (SEQ ID NO: 10)
[3] = target: Mutant 2, modified PPE proprotein with the MMP12 cleavage site, PPE optimized (SEQ ID NO: 9)
[4] = target: wild-type PPE proprotein as used in Example 2
Sequence of wild-type PPE proprotein as used in Example 2 (chain, as listed by the source): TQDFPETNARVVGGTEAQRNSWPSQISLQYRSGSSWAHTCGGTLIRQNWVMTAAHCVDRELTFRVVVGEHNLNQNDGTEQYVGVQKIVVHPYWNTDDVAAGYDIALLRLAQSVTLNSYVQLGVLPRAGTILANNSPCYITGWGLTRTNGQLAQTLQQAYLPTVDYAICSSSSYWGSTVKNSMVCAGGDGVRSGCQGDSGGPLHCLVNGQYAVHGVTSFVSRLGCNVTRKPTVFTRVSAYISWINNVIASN

Sequence of Mutant 2, modified PPE proprotein with the MMP12 cleavage site, PPE optimized (SEQ ID NO: 9) (chain, as listed by the source mutant): as the sequence (chain, as listed by the source) above, with T7G, N8A, R10G counted along it
Sequence of Mutant 3, modified PPE proprotein with the MMP12 cleavage site, balanced (SEQ ID NO: 10) (chain, as listed by the source mutant): as the sequence (chain, as listed by the source) above, with T7G, N8A, R10G, V11L counted along it

| Protein | catalytic activity after protease digestion (colorimetric substrate assay), FIG. 4B [1] | catalytic activity after protease digestion (colorimetric substrate assay, N-Methoxysuccinyl-Ala-Ala-Pro-Val p-nitroanilide), FIG. 4A [1] | protease cleavage by SDS-PAGE and Coomassie blue staining [2] | protease cleavage by SDS-PAGE and Coomassie blue staining [3] | catalytic activity after protease digestion (colorimetric substrate assay), FIG. 4B [4] |
| --- | --- | --- | --- | --- | --- |
| B1 | partially-catalytically-active after incubation with MMP7 |  |  |  |  |
| B2 | catalytically-active after incubation with MMP12 | catalytically-active after incubation by MMP12, relative to the activity of the native PPE as a control | the MMP12 protease cleaved the exemplary modified PPE proteins designated as ... Mutant 3 (3B) | the MMP12 protease cleaved the exemplary modified PPE proteins designated as Mutant 2 (3A) | catalytically-inactive after incubation with MMP12 or no protease |
